In patent publication US20150010525A1, “Catalytic Tagging System to Study Macro-Molecular Interactions Using Engineered Ubiquitin Ligase and Ubiquitin-Like Proteins to Facilitate Substrate Identification” (THE REGENTS OF THE UNIVERSITY OF CALIFORNIA, priority 2012, published 2015):

Legend:
XIAP = target: T1, XIAP (Homo sapiens, UniProt P61081+P98170); assay: SILAC mass spectrometry screen for XIAP substrates with NEDDylator^XIAP in apoptotic Jurkat cell lysate; format: biochemical; settings: Heavy lysate with Ubc12
T1 construct: The N-terminus (residues 1-434) of XIAP was then fused via a flexible Gly-Gly-Ser-Gly linker to the NEDD8 E2, Ubc12; GST (N, cleaved yes); made in house; host or cells: E. coli BL21 (DE3)
Method: Jurkat cells were grown in media containing either light or heavy isotopes of lysine and arginine and induced to undergo apoptosis with STS. Light cell extracts were incubated with the respective catalytic tagging system for each of the two IAPs and the heavy extracts labeled only with the wild-type NEDD8 E2, Ubc12. 64 mg regular L-Lys and 83.6 mg L-Arg.HCl were added to 1 liter RPMI-1640 minus L-Lys and L-Arg (Thermo/Pierce), 10% fetal bovine serum (FBS) to generate “Light” medium. 100 mg ^13C6^15N2 L-Lys.2HCl and 86 mg ^13C6 L-Arg.HCl (Cambridge Isotope) were added to the same amount of medium to generate the “Heavy” medium. Jurkat cells were cultured separately in “Light” or “Heavy” medium for 7 days to allow for thorough isotope incorporation. For IAP substrate identification, 400 million cells were treated with 2 μM STS for 4 hours, harvested, lysed in M-PER mammalian protein extraction buffer (Thermo/Pierce) in the presence of protease inhibitors (100× ProteoBlock cocktail, Fermentas) and mixed with cell lysate prepared from 400 million untreated cells. The NEDDylated proteins were isolated under denaturing conditions via the HB-NEDD8 tag using a tandem affinity pull down procedure (Tagwerker et al., Mol Cell Proteomics 5:737-748 (2006)) (FIG. 11). Purified NEDDylated proteins were trypsinized and analyzed with tandem mass spectrometry (LC-MS/MS).
For SILAC experiments, Jurkat cells were cultured separately in “Light” (supplemented with regular Lys and Arg) or “Heavy” (supplemented with ^13C6^15N2 Lys and ^13C6 Arg) medium for 7 days to allow for thorough isotope incorporation. Apoptotic “Light” and “Heavy” cell extracts were prepared individually. The lysates were cleared by spinning and then diluted in 50 mM HEPES pH 7.4, 150 mM NaCl to 5 mg/ml and supplemented with 5 mM ATP, 10 mM MgCl2. Endogenous NEDD8 E1 is cell lysate was used to catalyze the reaction. HB-NEDD8 was added to both lysate at mass ratio 1:500; the catalytic tagging system was added to the “Light” lysate at mass ratio 1:1000. Equal molar of Ubc12 was added to the “Heavy” lysate. […] NEDDylated proteins were separated by one-dimensional SDS-PAGE, and trypsinized for LC-MS/MS analysis.
For liquid chromatography—Tandem mass spectrometry (LC-MS/MS) analysis, the tryptic peptides were first desalted and concentrated with a C18 Ziptip (Millipore). LC-MS/MS was carried out by reverse phase LC interfaced with a LTQ-Orbitrap (ThermoFisher Scientific) hybrid mass spectrometer. A nanoflow HPLC (NanoAcquity UPLC system, Waters Corporation) was equipped with a trap column (180 μm×20 mm, 5 μm SymmetryC18, from Waters) and an analytical column (100 μm×100 mm, 1.7 μm BEH130C18, from Waters). […]

cIAP1 = target: T2, cIAP1 (Homo sapiens, UniProt P61081+Q13490); assay: SILAC mass spectrometry screen for cIAP1 substrates with NEDDylator^cIAP1 in apoptotic Jurkat cell lysate; format: biochemical; settings: Light lysate with NEDDylator^cIAP1, Heavy lysate with Ubc12
T2 construct: cIAP1(ΔR) (residues 1-555); GST (N, cleaved yes); made in house; host or cells: E. coli BL21 (DE3)
T2 sequence (Q13490+P61081 fused): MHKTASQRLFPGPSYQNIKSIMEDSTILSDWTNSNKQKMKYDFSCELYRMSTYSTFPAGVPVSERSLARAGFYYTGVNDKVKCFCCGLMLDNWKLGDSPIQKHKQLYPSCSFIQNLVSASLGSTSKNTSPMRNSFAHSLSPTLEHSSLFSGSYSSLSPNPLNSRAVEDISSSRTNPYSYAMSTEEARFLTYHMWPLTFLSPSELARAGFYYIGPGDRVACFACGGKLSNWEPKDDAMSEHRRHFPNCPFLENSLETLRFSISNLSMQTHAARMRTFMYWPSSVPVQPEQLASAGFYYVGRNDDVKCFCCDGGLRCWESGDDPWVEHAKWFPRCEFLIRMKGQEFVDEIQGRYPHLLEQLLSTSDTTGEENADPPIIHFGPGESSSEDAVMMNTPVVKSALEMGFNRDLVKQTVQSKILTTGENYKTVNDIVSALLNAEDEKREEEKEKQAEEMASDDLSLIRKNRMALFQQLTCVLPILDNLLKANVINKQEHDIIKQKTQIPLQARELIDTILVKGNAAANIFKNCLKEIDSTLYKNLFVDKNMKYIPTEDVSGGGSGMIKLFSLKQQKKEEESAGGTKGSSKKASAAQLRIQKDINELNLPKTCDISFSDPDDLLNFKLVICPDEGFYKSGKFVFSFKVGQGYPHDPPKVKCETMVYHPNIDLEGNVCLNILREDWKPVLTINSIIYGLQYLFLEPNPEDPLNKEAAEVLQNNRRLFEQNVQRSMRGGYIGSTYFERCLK

T1 sequence (P98170+P61081 fused): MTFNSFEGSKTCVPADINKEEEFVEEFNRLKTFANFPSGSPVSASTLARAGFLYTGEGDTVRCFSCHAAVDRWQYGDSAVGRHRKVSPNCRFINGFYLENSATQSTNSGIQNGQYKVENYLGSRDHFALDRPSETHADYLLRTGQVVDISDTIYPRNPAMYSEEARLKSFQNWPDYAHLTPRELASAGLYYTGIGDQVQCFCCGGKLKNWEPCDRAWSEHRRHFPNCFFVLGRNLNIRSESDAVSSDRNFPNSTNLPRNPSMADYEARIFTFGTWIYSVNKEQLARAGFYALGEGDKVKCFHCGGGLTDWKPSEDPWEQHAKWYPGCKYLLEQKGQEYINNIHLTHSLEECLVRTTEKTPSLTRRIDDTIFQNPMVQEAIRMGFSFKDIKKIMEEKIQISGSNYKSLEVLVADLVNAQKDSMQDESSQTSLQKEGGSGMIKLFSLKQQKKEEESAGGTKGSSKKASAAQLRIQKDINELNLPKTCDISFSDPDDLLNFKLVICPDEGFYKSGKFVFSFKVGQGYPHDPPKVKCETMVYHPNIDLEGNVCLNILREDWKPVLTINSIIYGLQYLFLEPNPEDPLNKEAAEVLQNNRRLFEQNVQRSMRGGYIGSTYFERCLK

- L/H (Light/Heavy ratio) (XIAP): 5.88
- L/H (Light/Heavy ratio) (cIAP1): 23.7
B1: Serine/threonine-protein phosphatase PGAM5, mitochondrial: phosphoglycerate mutase family member 5, dimeric protein phosphatase (protein, UniProt Q96HS1 1-289, looked up)
chain: MAFRQALQLAACGLAGGSAAVLFSAVAVGKPRAGGDAEPRPAEPPAWAGGARPGPGVWDPNWDRREPLSLINVRKRNVESGEEELASKLDHYKAKATRHIFLIRHSQYHVDGSLEKDRTLTPLGREQAELTGLRLASLGLKFNKIVHSSMTRAIETTDIISRHLPGVCKVSTDLLREGAPIEPDPPVSHWKPEAVQYYEDGARIEAAFRNYIHRADARQEEDSYEIFICHANVIRYIVCRALQFPPEGWLRLSLNNGSITHLVIRPNGRVALRTLGDTGFMPPDKITRS
modifications: full-length
notes: phosphoglycerate mutase family member 5, dimeric protein phosphatase
